Experiments:
HeLa Kyoto [1] = assay: solubility in G1/S (NP-40 vs SDS abundance) (log2 ratio); higher = more soluble; settings: cell cycle stage: G1/S
HeLa Kyoto [2] = assay: solubility change mitosis vs G1/S (difference of NP-40 vs SDS log2 ratios) (log2 ratio difference); higher = more soluble in mitosis
HeLa Kyoto [3] = assay: thermal stability score vs G1/S (z-score of summed log2 fold changes over temperatures); higher = more thermally stable than in G1/S
[4] = cell cycle stage: early G1 (4.5 h after nocodazole release)
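Wherever solubility change mitosis vs G1/S (difference of NP-40 vs SDS log2 ratios) is given: synchronized HeLa Kyoto cells (double thymidine block for G1/S, nocodazole release for mitosis), protein amounts in NP-40 versus SDS lysates quantified by mass spectrometry, three biological replicates.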
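Wherever solubility in G1/S (NP-40 vs SDS abundance) is given: HeLa Kyoto cells arrested at G1/S by double thymidine block, proteins quantified by TMT10plex mass spectrometry in mild NP-40 versus SDS extracts, three biological replicates.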
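Wherever thermal stability score vs G1/S (z-score of summed log2 fold changes over temperatures) is given: synchronized HeLa Kyoto cells, proteins quantified by TMT10plex mass spectrometry, three biological replicates, mitosis taken 0.5 h after nocodazole release, G1/S directly after double thymidine block.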

PCIF1, sequence (chain, as listed by the source): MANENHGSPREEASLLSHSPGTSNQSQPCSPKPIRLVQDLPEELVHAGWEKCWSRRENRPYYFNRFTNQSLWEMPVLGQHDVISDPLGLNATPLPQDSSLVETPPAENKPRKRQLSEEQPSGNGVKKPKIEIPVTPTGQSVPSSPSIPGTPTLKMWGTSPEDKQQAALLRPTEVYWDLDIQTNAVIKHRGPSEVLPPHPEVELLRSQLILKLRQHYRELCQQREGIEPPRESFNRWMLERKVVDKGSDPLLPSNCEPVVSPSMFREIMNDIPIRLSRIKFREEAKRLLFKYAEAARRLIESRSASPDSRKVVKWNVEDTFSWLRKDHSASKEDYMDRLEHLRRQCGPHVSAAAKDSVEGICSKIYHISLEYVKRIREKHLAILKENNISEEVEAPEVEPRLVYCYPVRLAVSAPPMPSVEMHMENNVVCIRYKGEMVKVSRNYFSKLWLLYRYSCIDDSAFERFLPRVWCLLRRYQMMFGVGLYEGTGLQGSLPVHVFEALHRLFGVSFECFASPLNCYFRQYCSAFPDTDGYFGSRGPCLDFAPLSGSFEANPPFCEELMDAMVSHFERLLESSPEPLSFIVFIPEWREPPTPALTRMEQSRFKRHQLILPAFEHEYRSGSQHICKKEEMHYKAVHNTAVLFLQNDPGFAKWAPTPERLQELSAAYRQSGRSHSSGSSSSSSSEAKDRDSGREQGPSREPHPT
MAP1A, sequence (chain, as listed by the source): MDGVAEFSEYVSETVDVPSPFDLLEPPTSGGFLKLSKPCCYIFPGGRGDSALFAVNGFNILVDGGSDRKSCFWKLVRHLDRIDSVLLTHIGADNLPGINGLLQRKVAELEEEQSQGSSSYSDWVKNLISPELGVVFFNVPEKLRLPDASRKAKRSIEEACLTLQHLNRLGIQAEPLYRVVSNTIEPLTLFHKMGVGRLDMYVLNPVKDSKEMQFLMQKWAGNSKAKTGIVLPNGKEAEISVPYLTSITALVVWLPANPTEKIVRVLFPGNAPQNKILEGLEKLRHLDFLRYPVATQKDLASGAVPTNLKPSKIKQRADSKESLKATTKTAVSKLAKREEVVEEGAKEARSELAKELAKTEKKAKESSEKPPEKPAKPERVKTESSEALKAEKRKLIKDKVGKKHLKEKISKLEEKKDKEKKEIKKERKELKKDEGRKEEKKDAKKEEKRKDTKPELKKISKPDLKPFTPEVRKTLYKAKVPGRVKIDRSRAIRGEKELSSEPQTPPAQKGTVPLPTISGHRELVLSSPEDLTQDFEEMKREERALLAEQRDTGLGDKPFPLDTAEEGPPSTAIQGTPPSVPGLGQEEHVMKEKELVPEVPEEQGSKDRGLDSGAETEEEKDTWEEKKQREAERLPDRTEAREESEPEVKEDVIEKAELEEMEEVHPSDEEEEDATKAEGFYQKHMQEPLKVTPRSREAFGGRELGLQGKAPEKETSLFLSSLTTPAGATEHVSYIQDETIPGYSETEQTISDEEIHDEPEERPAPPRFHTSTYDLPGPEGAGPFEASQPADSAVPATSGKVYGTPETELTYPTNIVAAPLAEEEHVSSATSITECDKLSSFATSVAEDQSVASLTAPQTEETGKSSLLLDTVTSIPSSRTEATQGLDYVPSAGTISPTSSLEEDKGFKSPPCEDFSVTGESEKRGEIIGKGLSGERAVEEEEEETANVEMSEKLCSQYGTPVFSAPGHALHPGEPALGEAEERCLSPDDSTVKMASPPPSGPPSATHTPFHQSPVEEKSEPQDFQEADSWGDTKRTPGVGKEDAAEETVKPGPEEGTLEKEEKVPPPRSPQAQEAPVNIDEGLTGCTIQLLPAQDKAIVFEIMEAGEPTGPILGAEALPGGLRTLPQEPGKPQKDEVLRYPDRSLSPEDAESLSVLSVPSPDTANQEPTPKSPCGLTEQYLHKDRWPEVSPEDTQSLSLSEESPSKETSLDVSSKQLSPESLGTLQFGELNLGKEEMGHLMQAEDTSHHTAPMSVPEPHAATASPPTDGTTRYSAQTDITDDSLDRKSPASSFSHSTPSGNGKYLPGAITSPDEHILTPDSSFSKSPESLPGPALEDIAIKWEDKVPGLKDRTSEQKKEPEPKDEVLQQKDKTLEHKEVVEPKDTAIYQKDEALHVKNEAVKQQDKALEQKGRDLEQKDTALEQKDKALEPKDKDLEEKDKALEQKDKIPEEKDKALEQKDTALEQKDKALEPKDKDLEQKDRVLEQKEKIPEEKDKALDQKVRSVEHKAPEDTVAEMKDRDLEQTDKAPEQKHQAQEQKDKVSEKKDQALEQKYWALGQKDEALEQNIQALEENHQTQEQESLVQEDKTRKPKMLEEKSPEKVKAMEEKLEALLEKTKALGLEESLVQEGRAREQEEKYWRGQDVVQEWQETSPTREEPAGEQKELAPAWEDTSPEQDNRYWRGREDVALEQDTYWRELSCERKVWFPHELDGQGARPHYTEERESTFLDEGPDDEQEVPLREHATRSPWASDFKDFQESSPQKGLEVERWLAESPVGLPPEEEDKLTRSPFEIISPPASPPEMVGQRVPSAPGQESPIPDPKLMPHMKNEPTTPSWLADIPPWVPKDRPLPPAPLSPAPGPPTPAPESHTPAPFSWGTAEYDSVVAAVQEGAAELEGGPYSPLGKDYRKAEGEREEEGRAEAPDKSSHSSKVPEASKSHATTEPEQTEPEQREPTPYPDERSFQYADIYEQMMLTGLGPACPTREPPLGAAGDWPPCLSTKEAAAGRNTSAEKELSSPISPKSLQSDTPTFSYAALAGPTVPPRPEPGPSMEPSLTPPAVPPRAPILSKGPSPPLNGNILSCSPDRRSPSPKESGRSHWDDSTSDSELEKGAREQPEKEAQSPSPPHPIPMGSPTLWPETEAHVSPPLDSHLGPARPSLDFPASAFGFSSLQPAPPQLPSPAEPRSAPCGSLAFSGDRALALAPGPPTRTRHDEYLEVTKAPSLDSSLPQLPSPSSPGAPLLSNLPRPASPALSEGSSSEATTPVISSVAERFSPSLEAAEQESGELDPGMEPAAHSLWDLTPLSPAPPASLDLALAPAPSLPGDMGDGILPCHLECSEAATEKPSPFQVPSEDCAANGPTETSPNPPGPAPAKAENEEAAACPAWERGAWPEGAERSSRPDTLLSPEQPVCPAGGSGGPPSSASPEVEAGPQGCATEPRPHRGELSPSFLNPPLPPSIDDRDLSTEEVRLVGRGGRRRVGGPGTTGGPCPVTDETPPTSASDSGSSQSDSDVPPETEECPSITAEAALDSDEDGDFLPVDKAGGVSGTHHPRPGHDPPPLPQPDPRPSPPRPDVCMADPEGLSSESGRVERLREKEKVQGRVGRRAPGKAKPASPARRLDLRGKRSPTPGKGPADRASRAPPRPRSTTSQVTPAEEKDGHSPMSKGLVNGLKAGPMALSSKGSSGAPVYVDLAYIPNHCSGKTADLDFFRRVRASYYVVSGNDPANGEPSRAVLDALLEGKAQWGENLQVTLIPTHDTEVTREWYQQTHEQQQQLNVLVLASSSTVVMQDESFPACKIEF

Substance | solubility in G1/S (log2) (HeLa Kyoto [1]) | solubility change mitosis (log2) (HeLa Kyoto [2]) | thermal stability score (HeLa Kyoto [3]; [4]) | thermal stability score (HeLa Kyoto [3]; cell cycle stage: mitosis)
MMSEHDLADVVQIAVEDLSPDHPVVLENHVVTDEDEPALKRQRLEINCQDPSIKTICLRLDSIEAKLQALEATCKSLEEKLDLVTNKQHSPIQVPMVAGSPLGATQTCNKVRCVVPQTTVILNNDRQNAIVAKMEDPLSNRAPDSLENVISNAVPGRRQNTIVVKVPGQEDSHHEDGESGSEASDSVSSCGQAGSQSIGSNVTLITLNSEEDYPNGTWLGDENNPEMRVRCAIIPSDMLHISTNCRTAEKMALTLLDYLFHREVQAVSNLSGQGKHGKKQLDPLTIYGIRCHLFYKFGITESDWYRIKQSIDSKCRTAWRRKQRGQSLAVKSFSRRTPNSSSYCPSEPMMSTPPPASELPQPQPQPQALHYALANAQQVQIHQIGEDGQVQVGHLHIAQVPQGEQVQITQDSEGNLQIHHVGQDGQLLEATRIPCLLAPSVFKASSGQVLQGAQLIAVASSDPAAAGVDGSPLQGSDIQVQYVQLAPVSDHTAGAQTAEALQPTLQPEMQLEHGAIQIQ [BANP] | 0.417 | 0.0132 | – | –
TAF1 | -0.408 | 0.0526 | – | –
MDSPGYNCFVDKDKMDAAIQDLGPKELSCTELQELKQLARQGYWAQSHALRGKVYQRLIRDIPCRTVTPDASVYSDIVGKIVGKHSSSCLPLPEFVDNTQVPSYCLNARGEGAVRKILLCLANQFPDISFCPALPAVVALLLHYSIDEAECFEKACRILACNDPGRRLIDQSFLAFESSCMTFGDLVNKYCQAAHKLMVAVSEDVLQVYADWQRWLFGELPLCYFARVFDVFLVEGYKVLYRVALAILKFFHKVRAGQPLESDSVKQDIRTFVRDIAKTVSPEKLLEKAFAIRLFSRKEIQLLQMANEKALKQKGITVKQKSVSLSKRQFVHLAVHAENFRSEIVSVREMRDIWSWVPERFALCQPLLLFSSLQHGYSLARFYFQCEGHEPTLLLIKTTQKEVCGAYLSTDWSERNKFGGKLGFFGTGECFVFRLQPEVQRYEWVVIKHPELTKPPPLMAAEPTAPLSHSASSDPADRLSPFLAARHFNLPSKTESMFMAGGSDCLIVGGGGGQALYIDGDLNRGRTSHCDTFNNQPLCSENFLIAAVEAWGFQDPDTQ [TBC1D24] | -0.273 | -0.16 | – | –
PCIF1 | 0.0856 | -0.0368 | – | –
MGHPPLEFSDCYLDSPDFRERLKCYEQELERTNKFIKDVIKDGNALISAMRNYSSAVQKFSQTLQSFQFDFIGDTLTDDEINIAESFKEFAELLNEVENERMMMVHNASDLLIKPLENFRKEQIGFTKERKKKFEKDGERFYSLLDRHLHLSSKKKESQLQEADLQVDKERHNFFESSLDYVYQIQEVQESKKFNIVEPVLAFLHSLFISNSLTVELTQDFLPYKQQLQLSLQNTRNHFSSTREEMEELKKRMKEAPQTCKLPGQPTIEGYLYTQEKWALGISWVKYYCQYEKETKTLTMTPMEQKPGAKQGPLDLTLKYCVRRKTESIDKRFCFDIETNERPGTITLQALSEANRRLWMEAMDGKEPIYHSPITKQQEMELNEVGFKFVRKCINIIETKGIKTEGLYRTVGSNIQVQKLLNAFFDPKCPGDVDFHNSDWDIKTITSSLKFYLRNLSEPVMTYRLHKELVSAAKSDNLDYRLGAIHSLVYKLPEKNREMLELLIRHLVNVCEHSKENLMTPSNMGVIFGPTLMRAQEDTVAAMMNIKFQNIVVEILIEHFGKIYLGPPEESAAPPVPPPRVTARRHKPITISKRLLRERTVFYTSSLDESEDEIQHQTPNGTITSSIEPPKPPQHPKLPIQRSGETDPGRKSPSRPILDGKLEPCPEVDVGKLVSRLQDGGTKITPKATNGPMPGSGPTKTPSFHIKRPAPRPLAHHKEGDADSFSKVRPPGEKPTIIRPPVRPPDPPCRAATPQKPEPKPDIVAGNAGEITSSVVASRTRFFETASRKTGSSQGRLPGDES [OPHN1] | -0.348 | -0.0995 | – | –
MAP1A | -0.122 | -0.0549 | – | –
MAKRRAAEPVTFHVPWKRLLLCDFAEQPPPPPLWIRPPGVAHAGQLLGVPEQHRKRKIDAGTMAEPSASPSKRRDSGDNSAPSGQEREDHGLETGDPPLPPPPVLPGPGEELPGARLPGGGGDDGAGRAGPPRGDWGVASRQHNEEFWQYNTFQYWRNPLPPIDLADIEDLSEDTLTEATLQGRNEGAEVDMES [C9ORF40] | 0.182 | -0.227 | – | –
MNKNTSTVVSPSLLEKDPAFQMITIAKETGLGLKVLGGINRNEGPLVYIQEIIPGGDCYKDGRLKPGDQLVSVNKESMIGVSFEEAKSIITGAKLRLESAWEIAFIRQKSDNIQPENLSCTSLIEASGEYGPQASTLSLFSSPPEILIPKTSSTPKTNNDILSSCEIKTGYNKTVQIPITSENSTVGLSNTDVASAWTENYGLQEKISLNPSVRFKAEKLEMALNYLGIQPTKEQHQALRQQVQADSKGTVSFGDFVQVARNLFCLQLDEVNVGAHEISNILDSQLLPCDSSEADEMERLKCERDDALKEVNTLKEKLLESDKQRKQLTEELQNVKQEAKAVVEETRALRSRIHLAEAAQRQAHGMEMDYEEVIRLLEAKITELKAQLADYSDQNKESVQDLKKRIMVLDCQLRKSEMARKTFEASTEKLLHFVEAIQEVFSDNSTPLSNLSERRAVLASQTSLTPLGRNGRSIPATLALESKELVKSVRALLDMDCLPYGWEEAYTADGIKYFINHVTQTTSWIHPVMSVLNLSRSEENEEDCSRELPNQKS [STXBP4] | 0.308 | -0.138 | – | –
MTEKAPEPHVEEDDDDELDSKLNYKPPPQKSLKELQEMDKDDESLIKYKKTLLGDGPVVTDPKAPNVVVTRLTLVCESAPGPITMDLTGDLEALKKETIVLKEGSEYRVKIHFKVNRDIVSGLKYVQHTYRTGVKVDKATFMVGSYGPRPEEYEFLTPVEEAPKGMLARGTYHNKSFFTDDDKQDHLSWEWNLSIKKEWTE [ARHGDIB] | 0.0837 | -0.0572 | – | –
MGDNPFQPKSNSKMAELFMECEEEELEPWQKKVKEVEDDDDDEPIFVGEISSSKPAISNILNRVNPSSYSRGLKNGALSRGITAAFKPTSQHYTNPTSNPVPASPINFHPESRSSDSSVIVQPFSKPGYITNSSRVVSNKSSELLFDLTQDTGLSHYQGGPTLSMAGMSESSFLSKRPSTSEVNNVNPKKPKPSESVSGANSSAVLPSVKSPSVTSSQAMLAKGTNTSSNQSKNGTPFPRACPKCNIHFNLLDPLKNHMKYCCPDMINNFLGLAKTEFSSTVNKNTTIDSEKGKLIMLVNDFYYGKHEGDVQEEQKTHTTFKCFSCLKILKNNIRFMNHMKHHLELEKQSSESWENHTTCQHCYRQFPTPFQLQCHIESTHTPHEFSTICKICELSFETEHVLLQHMKDNHKPGEMPYVCQVCNYRSSSFSDVETHFRTSHENTKNLLCPFCLKVIKIATPYMHHYMKHQKKGIHRCTKCRLQFLTCKEKMDHKTQHHRTFIKPKQLEGLPPGTKVTIRASVGPLQSGASPTPSISASASTLQLSPPRTKNITAKNPAKSNTSKPNTVKSNASKPNTSKPNGSKSKYKPKISNMQKKQSTLASSNKKSKVNTALRNLRYRRGIHKCIECCSEIKDFANHFPTYVHCSFCRYNTSCSKAYVNHMMSFHSNRPSKRFCIFKKHSENLRGITLVCLNCDFLSDVSGLDNMATHLSQHKTHTCQVVMQKVSVCIPTSEHLSELKKEAPAKEQEPVSKEIARPNMAERETETSNSESKQDKAASSKEKNGCNANSFEGSSTTKSEESITVSDKENETCLADQETGSKNIVSCDSNIGADKVEKKKQIQHVCQEMELKMCQSSENIILSDQIKDHNSSEARFSSKNIKDLRLASDNVSIDQFLRKRHEPESVSSDVSEQGSIHLEPLTPSEVLEYEATEILQKGSGDPSAKTDEVVSDQTDDIPGGNNPSTTEATVDLEDEKERS [ZNF280D] | -0.86 | 0.447 | – | –
MALKGRALYDFHSENKEEISIQQDEDLVIFSETSLDGWLQGQNSRGETGLFPASYVEIVRSGISTNHADYSSSPAGSPGAQVSLYNSPSVASPARSGGGSGFLSNQGSFEEDDDDDWDDWDDGCTVVEEPRAGGLGTNGHPPLNLSYPGAYPSQHMAFRPKPPLERQDSLASAKRGSVVGRNLNRFSCFVRSGVEAFILGDVPMMAKIAETYSIEMGPRGPQWKANPHPFACSVEDPTKQTKFKGIKSYISYKLTPTHAASPVYRRYKHFDWLYNRLLHKFTVISVPHLPEKQATGRFEEDFIEKRKRRLILWMDHMTSHPVLSQYEGFQHFLSCLDDKQWKMGKRRAEKDEMVGASFLLTFQIPTEHQDLQDVEDRVDTFKAFSKKMDDSVLQLSTVASELVRKHVGGFRKEFQKLGSAFQAISHSFQMDPPFCSEALNSAISHTGRTYEAIGEMFAEQPKNDLFQMLDTLSLYQGLLSNFPDIIHLQKGAFAKVKESQRMSDEGRMVQDEADGIRRRCRVVGFALQAEMNHFHQRRELDFKHMMQNYLRQQILFYQRVGQQLEKTLRMYDNL [SNX33] | -0.337 | -0.033 | – | –
MAGRVPSLLVLLVFPSSCLAFRSPLSVFKRFKETTRPFSNECLGTTRPVVPIDSSDFALDIRMPGVTPKQSDTYFCMSMRIPVDEEAFVIDFKPRASMDTVHHMLLFGCNMPSSTGSYWFCDEGTCTDKANILYAWARNAPPTRLPKGVGFRVGGETGSKYFVLQVHYGDISAFRDNNKDCSGVSLHLTRLPQPLIAGMYLMMSVDTVIPAGEKVVNSDISCHYKNYPMHVFAYRVHTHHLGKVVSGYRVRNGQWTLIGRQSPQLPQAFYPVGHPVDVSFGDLLAARCVFTGEGRTEATHIGGTSSDEMCNLYIMYYMEAKHAVSFMTCTQNVAPDMFRTIPPEANIPIPVKSDMVMMHEHHKETEYKDKIPLLQQPKREEEEVLDQGDFYSLLSKLLGEREDVVHVHKYNPTEKAESESDLVAEIANVVQKKDLGRSDAREGAEHERGNAILVRDRIHKFHRLVSTLRPPESRVFSLQQPPPGEGTWEPEHTGDFHMEEALDWPGVYLLPGQVSGVALDPKNNLVIFHRGDHVWDGNSFDSKFVYQQIGLGPIEEDTILVIDPNNAAVLQSSGKNLFYLPHGLSIDKDGNYWVTDVALHQVFKLDPNNKEGPVLILGRSMQPGSDQNHFCQPTDVAVDPGTGAIYVSDGYCNSRIVQFSPSGKFITQWGEESSGSSPLPGQFTVPHSLALVPLLGQLCVADRENGRIQCFKTDTKEFVREIKHSSFGRNVFAISYIPGLLFAVNGKPHFGDQEPVQGFVMNFSNGEIIDIFKPVRKHFDMPHDIVASEDGTVYIGDAHTNTVWKFTLTEKLEHRSVKKAGIEVQEIKEAEAVVETKMENKPTSSELQKMQEKQKLIKEPGSGVPVVLITTLLVIPVVVLLAIAIFIRWKKSRAFGDSEHKLETSSGRVLGRFRGKGSGGLNLGNFFASRKGYSRKGFDRLSTEGSDQEKEDDGSESEEEYSAPLPALAPSSS [PAM] | – | -0.0982 | -1.73 | -2.21
MWSAGRGGAAWPVLLGLLLALLVPGGGAAKTGAELVTCGSVLKLLNTHHRVRLHSHDIKYGSGSGQQSVTGVEASDDANSYWRIRGGSEGGCPRGSPVRCGQAVRLTHVLTGKNLHTHHFPSPLSNNQEVSAFGEDGEGDDLDLWTVRCSGQHWEREAAVRFQHVGTSVFLSVTGEQYGSPIRGQHEVHGMPSANTHNTWKAMEGIFIKPSVEPSAGHDEL [SDF2L1] | – | -0.0974 | 4.06 | 1.19

From the supplement of paper PMC5998384
